# Test results: the supplement of paper PMC7125110
# ± gives the standard error. For some of these results: Variants at the floor of the assay were thinned out.
# B1: glmS ribozyme (parent)
# chain: AUAAAAGCGCCAGAACUACAGAAAUGUAGUUGACGAGGAGGAGGUUUAUCGAAUUUUCGGCGGAUGCCUCCAAA
# Assays:
# Settings in all cases: with glucosamine-6-phosphate
# [1] = variants of: B1; assay: kcat; higher = faster cleavage; RNA array
# Summary of the method: (§1)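 Tracking of barcoded ribozyme variants used a hybridised Cy3 probe at 37 °C, after in situ transcription by E. coli RNA polymerase on sequenced MiSeq chips. The flowed solution held 40 μM to 10 mM glucosamine-6-phosphate in HEPES/KCl/Mg(OAc)2 buffer, and imaging ran over ~14 h. kobs was taken from exponential decay fits of normalised per-tile medians, and kcat and KM from weighted Michaelis–Menten fits.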
# [2] = variants of: B1; assay: self-cleavage kobs at 160 uM GlcN6P; higher = faster cleavage; RNA array
# Summary of the method: as §1
# [3] = variants of: B1; assay: self-cleavage kobs at 640 uM GlcN6P; higher = faster cleavage; RNA array
# Summary of the method: as §1
# [4] = variants of: B1; assay: KM; higher = weaker cofactor use; RNA array
# Summary of the method: as §1
# [5] = variants of: B1; assay: self-cleavage kobs at 2500 uM GlcN6P; higher = faster cleavage; RNA array
# Summary of the method: as §1
# [6] = variants of: B1; assay: self-cleavage kobs at 10000 uM GlcN6P; higher = faster cleavage; RNA array
# Summary of the method: as §1
# [7] = variants of: B1; assay: self-cleavage kobs at 40 uM GlcN6P; higher = faster cleavage; RNA array
# Summary of the method: as §1
Variant,kcat [1],self-cleavage kobs at 160 uM GlcN6P [2],self-cleavage kobs at 640 uM GlcN6P [3],KM [4],self-cleavage kobs at 2500 uM GlcN6P [5],self-cleavage kobs at 10000 uM GlcN6P [6],self-cleavage kobs at 40 uM GlcN6P [7]
G35U G51C,< 1e-05 s⁻¹,< 1e-05 s⁻¹,< 1e-05 s⁻¹,,,,
A39G C50U,0.000157 ± 2.6e-05 s⁻¹,,,3430 ± 1200 µM,6.91e-05 ± 1.4e-05 s⁻¹,0.000115 ± 2.5e-05 s⁻¹,
A33U C71G,1.4e-05 ± 2.4e-06 s⁻¹,,,,,1.47e-05 ± 7.1e-06 s⁻¹,
C34A C67G,< 1e-05 s⁻¹,< 1e-05 s⁻¹,< 1e-05 s⁻¹,,< 1e-05 s⁻¹,,< 1e-05 s⁻¹
A36U C67G,1.75e-05 ± 5.9e-06 s⁻¹,,,,,,
G37C C50U,< 1e-05 s⁻¹,,,,,< 1e-05 s⁻¹,
G35A G38A,< 1e-05 s⁻¹,,,,,,
A36U G66A,< 1e-05 s⁻¹,< 1e-05 s⁻¹,,,,,
A33U U54C,0.000118 ± 8e-06 s⁻¹,< 1e-05 s⁻¹,,2880 ± 720 µM,5.23e-05 ± 2e-05 s⁻¹,9.17e-05 ± 1.1e-05 s⁻¹,
G35U U55C,< 1e-05 s⁻¹,< 1e-05 s⁻¹,,,< 1e-05 s⁻¹,< 1e-05 s⁻¹,< 1e-05 s⁻¹
G35A G43C,< 1e-05 s⁻¹,< 1e-05 s⁻¹,,,,< 1e-05 s⁻¹,
G38U C67U,< 1e-05 s⁻¹,,,,,,
G38U C67A,1.4e-05 ± 1.8e-06 s⁻¹,,,,,,
A39G U46C,0.00815 ± 0.0014 s⁻¹,0.00135 ± 0.00039 s⁻¹,0.00369 ± 0.00073 s⁻¹,946 ± 240 µM,0.0069 ± 0.0015 s⁻¹,0.00601 ± 0.0018 s⁻¹,0.000292 ± 6.4e-05 s⁻¹
G37U C68G,2.11e-05 ± 5e-06 s⁻¹,,,,,,
G37A U46C,0.0015 ± 0.00029 s⁻¹,5.92e-05 ± 9.2e-06 s⁻¹,0.000204 ± 3e-05 s⁻¹,4230 ± 1100 µM,0.00046 ± 8e-05 s⁻¹,0.00117 ± 0.00017 s⁻¹,
G37U,< 1e-05 s⁻¹,,,,< 1e-05 s⁻¹,< 1e-05 s⁻¹,
G37C,5.32e-05 ± 1.7e-06 s⁻¹,,1.88e-05 ± 1.5e-06 s⁻¹,1380 ± 210 µM,3.22e-05 ± 1.5e-06 s⁻¹,4.71e-05 ± 8.5e-07 s⁻¹,
G37A,0.00564 ± 0.001 s⁻¹,0.000198 ± 7.5e-06 s⁻¹,0.000777 ± 1.7e-05 s⁻¹,3540 ± 830 µM,0.00255 ± 7.6e-05 s⁻¹,0.00419 ± 8.2e-05 s⁻¹,7.38e-05 ± 1.4e-06 s⁻¹
G38U C70A,1.31e-05 ± 3.3e-06 s⁻¹,,,,,,
G37C U54G U55G,5.85e-05 ± 2.8e-06 s⁻¹,,,2190 ± 470 µM,,4.79e-05 ± 1.5e-05 s⁻¹,
A39G U54C,0.0135 ± 0.004 s⁻¹,0.00183 ± 0.0008 s⁻¹,0.00774 ± 0.0024 s⁻¹,759 ± 340 µM,0.00946 ± 0.0035 s⁻¹,,0.000807 ± 0.00031 s⁻¹
A33U A53G C70U,0.000178 ± 1.5e-05 s⁻¹,,,,,5.75e-05 ± 9.2e-06 s⁻¹,

Variant,kcat [1],self-cleavage kobs at 160 uM GlcN6P [2],self-cleavage kobs at 640 uM GlcN6P [3],KM [4],self-cleavage kobs at 2500 uM GlcN6P [5],self-cleavage kobs at 10000 uM GlcN6P [6],self-cleavage kobs at 40 uM GlcN6P [7]
A36U A64G,1.98e-05 ± 2e-06 s⁻¹,,,,,1.85e-05 ± 5.8e-06 s⁻¹,
C34G C50G G62A,2.47e-05 ± 3.6e-06 s⁻¹,,,,,,
G35A G37A G44U U49G C67G,< 1e-05 s⁻¹,,,,< 1e-05 s⁻¹,,
A36C U46C,< 1e-05 s⁻¹,,< 1e-05 s⁻¹,,,< 1e-05 s⁻¹,< 1e-05 s⁻¹
G37U U47G,< 1e-05 s⁻¹,,< 1e-05 s⁻¹,,,,< 1e-05 s⁻¹
G37U U47A,< 1e-05 s⁻¹,,< 1e-05 s⁻¹,,,,
A36C U49G,0.00221 ± 0.00064 s⁻¹,,0.000416 ± 0.00011 s⁻¹,,0.000851 ± 0.00021 s⁻¹,0.00186 ± 0.00031 s⁻¹,6.21e-05 ± 2.5e-05 s⁻¹
A33U C67G C68G,9.15e-05 ± 1.3e-05 s⁻¹,4.67e-05 ± 1.9e-05 s⁻¹,0.000106 ± 1.7e-05 s⁻¹,,9.54e-05 ± 1.6e-05 s⁻¹,7.94e-05 ± 2e-05 s⁻¹,6.63e-05 ± 2e-05 s⁻¹
G37A U69G,2.13e-05 ± 3.7e-06 s⁻¹,,,,,,
G37A U69A,7.14e-05 ± 8.5e-06 s⁻¹,,,7590 ± 2000 µM,,4.06e-05 ± 8.5e-06 s⁻¹,
G37A G59A,< 1e-05 s⁻¹,,,,,,< 1e-05 s⁻¹
A39G U69G,0.000101 ± 1.5e-05 s⁻¹,0.000114 ± 3.2e-05 s⁻¹,7.75e-05 ± 1.3e-05 s⁻¹,,0.000143 ± 1.7e-05 s⁻¹,9.32e-05 ± 1e-05 s⁻¹,4.07e-05 ± 1.3e-05 s⁻¹
A39C U45A A53U C70U,4.71e-05 ± 2.2e-06 s⁻¹,,,835 ± 200 µM,,4.34e-05 ± 1.8e-05 s⁻¹,
A36G U69A,1.02e-05 ± 2.2e-06 s⁻¹,,,,,,
G37C U49G,< 1e-05 s⁻¹,,,,,,
A33U G40U,5.28e-05 ± 4e-06 s⁻¹,< 1e-05 s⁻¹,,,,1.68e-05 ± 7.9e-06 s⁻¹,< 1e-05 s⁻¹
G38A U47G C71G,1.15e-05 ± 1.8e-06 s⁻¹,,,,,,
G37U A53G,1.16e-05 ± 3.4e-06 s⁻¹,,,,,,
A39G A52U,0.00125 ± 0.00024 s⁻¹,,4.99e-05 ± 2.1e-05 s⁻¹,,0.000222 ± 4.6e-05 s⁻¹,0.00054 ± 7.6e-05 s⁻¹,< 1e-05 s⁻¹
G37C G51A,< 1e-05 s⁻¹,< 1e-05 s⁻¹,,,,,
A33U U46G,1.23e-05 ± 2.7e-06 s⁻¹,< 1e-05 s⁻¹,,,,,< 1e-05 s⁻¹
A36C U55C,< 1e-05 s⁻¹,,,,,< 1e-05 s⁻¹,
